Test system: hippocampal proteins
Assay: DIA quantification proteomics, hippocampus of Mdga2+/- vs WT mice
Design: species or system mouse
Details: S3 Table, downregulated DEPs; for log2FC: Mdga2+/- vs WT mouse hippocampus (HET-HIP-VS-WT-HIP), SE, pvalue and adj_pvalue in own columns c3-c5; for Class: regulation class of the protein, HET-HIP-VS-WT-HIP
Description: The hippocampus of 1.5–2-month-old Mdga2^ +/− male mice and their WT littermate controls was collected and sent to the BGI company for DIA quantification proteomics and data analysis. Briefly, samples were lysed and sonicated. After centrifugation, the supernatant was taken for quantification. Equal amounts of proteins (100 μg) per sample were subjected to trypsin enzymatic hydrolysis. After dryness, 10 μg enzymatic peptides per sample were separated by high-pH fractionation into a total of 10 fractions using high-performance liquid chromatography (HPLC) and freeze-dried. Data-dependent acquisition (DDA) fractions and DIA samples were analyzed by nano-LC–MS/MS. DDA data was identified by Andromeda search engine within MaxQuant. Identified results were used by Spectronaut^TM for spectral library construction. For DIA data, Spectronaut^TM used the constructed spectral library information to complete deconvolution and extraction, and used the mProphet algorithm to complete analytical quality control for obtaining reliable quantitative results. The mass spectrometry proteomics data have been deposited to the ProteomeXchange Consortium via the PRIDE [62] partner repository with the dataset identifier PXD050810. DEPs between comparison groups were identified based on the quantitative results, using the fold change >1.1 and p-value <0.05 as the criteria. After retrieval from the UniProtKB database, identified DEPs were processed for GO analysis by using DAVID (https://david.ncifcrf.gov/home.jsp) and Metascape database (https://metascape.org/gp/index.html).

Molecule	log2FC	Class
sp¦Q80TF3¦PCD19_MOUSE (protein, UniProt Q80TF3 22-1145, looked up) Protocadherin-19: LINLKYSVEEEQRAGTVIANVAKDAREAGFALDPRQASAFRVVSNSAPHLVDINPSSGLLVTKQKIDRDLLCRQSPKCIISLEVMSSSMEICVIKVEIKDLNDNAPSFPAAQIELEISEAASPGTRIPLDSAYDPDSGSFGVQTYELTPNELFGLEIKTRGDGSRFAELVVEKSLDRETQSHYSFRITALDGGDPPHMGTVGLSIKVTDSNDNNPVFGESTYSVSVPENSPPNTPVIRLNASDPDEGTNGQVVYSFYGYVNDRTRELFQIDPHSGLVTVTGALDYEEGHVYELDVQAKDLGPNSIPAHCKVTVSVLDTNDNPPIINLLSVNSELVEVSESAPPGYVIALVRVSDRDSGLNGRVQCRLLGNVPFRLQEYESFSTILVDGRLDREQHDQYNLTIQARDSGVPMLQSAKSFTVRITDENDNHPHFSKPYYQVIVQENNTPGAYLLSVSARDPDMGLNGSVSYQIVPSQVRDMPVFTYVSINPNSGDIYALRSFNHEQTKAFEFKVLAKDGGLPSLQSNATVRVIILDVNDNTPVITAPPLINGTAEVYIPRNSGIGYLVTVVKADDYDEGENGRVTYDMTEGDRGFFEIDQVNGEVRTTRTFNENSKPSYELIVVAHDHGKTSLSASALVLIYLSPALDAQESMGSVNLSLIFIIALGSIAGILFVTMIFVAIKCKRDNKEIRTYNCSNCLTITCLLGCFIKGQNSKCLHCISVSPNSEEQDKKAEEKVSLRGKRIAEYSYGHQKKSSKKKKISKNDIRLVPRDVEETDKMNVVSCSSLTSSLNYFDYHQQTLPLGCRRSESTFLNVENQNTRNTTASHIYHHSFNSQGPQQPDLIINGVPLPETENYSFDSNYVNSRAHLIKSSSTFKDLEGNSLKDSGHEESDQTDSEHDVQRSLYCDTAVNDVLNTSVTSMGSQMPDHDQNEGFHCREECRILGHSDRCWMPRNPMPTRSKSPEHVRNIIALSIEATAADVEAYDDCGPTKRTFATFGKDVSSHRAEERPILKGKRTVDVTICSPKVNSAIREAGNGCEAISPVTSPLHLKSPLPTKPSISYTVALAPPAHDLEHHANSGASRPSEAEPRGADNEKVMHEVNPIRKDGRDKESPSVKRLKDIVL	-1.393	Down
sp¦Q71FD5¦ZNRF2_MOUSE (protein, UniProt Q71FD5 2-238, looked up) E3 ubiquitin-protein ligase …: GAKQSGPAANGRTRAYSGSDLPSGTGSGGGGADGARAARFAAPVSGAQQPSASAGAAAAAAAAASAPAAPRSRSLGGAVGSASGGRAAQSAFSIPSAGGGGGPYGSQDSVHSSPEDSVGARDRDRPAGGGPGGPRLVIGSLPAHLSPHLFGGFKCPVCSKFVPSDEMDLHLVMCLTKPRITYNEDVLSKDTGECAICLEELQQGDTIARLPCLCIYHKGCIDEWFEVNRSCPEHPSD	-1.4	Down
sp¦Q80TS7¦DEND_MOUSE (protein, UniProt Q80TS7 1-710, looked up) Dendrin: MLDGPLFSEGPDSPRELQDEESGSCLWVQKSKLLVIEVKTISCHYSRRAPSRQSMDIQASYWARGPQSRTCRLRPGSPEPPPRRPWASRVLQEATNWRAGPPAEVRAREQEKRKAASQEREAKETERKRRKAGGARRSPLGQPRPEPRNALRAAQPTGFPVFSRPERFGQVGRAPRPSVLPQGDPGVAWAGPWGGRRPGPPSYEAHLLLRGSAGTAPRRRWDRPPPYVAPPSYEGPHRTLGTKRGPELSRAPTSSAPVPATTRTEGGRTKKRLDPRIYRDVLGAWGLRQGRGLLGGAPGCTAARARPESCKGAIEKSSGLVAAGLNSAGDSHSQGKTTGGPGTDAALSRSAISSPPRPVPRSRQHLRGSRKGKEGSEQIWLPTCWLASPKKPPVRHSQTLPRPWAPGGTGWKESLGQREGAEHETLEVWKVTRRAHTLPRISRGPAGREGIFVIDATCVVIKSQYVPTPRTQQGQLVPSGESCSVSDSLSQPKPCHEEEGEGAAANPSVCQKRLLSSRVLNQPSEGRECEAEVGQQGDSSLEERSSSGLGFPVGEVNPRDAPTQPGSQEHPTLGPAAPVCAGSLKGSEAAGVPRRAGGGWARTPGPYAGALREAVSRIRRHTAPDSDSDEAEDLSVHSGSSDGSDTDAPGASWRNERTLPALGNTRPREGGKTAGLSDSIREIVDVISQTEEGFIREDTRKTPQGNRERE	-1.4022	Down
sp¦Q9JK53¦PRELP_MOUSE (protein, UniProt Q9JK53 22-378, looked up) Prolargin: QPTRPKPGIRRKPKPRPTPRFPQAPEPAEPTDLPPPLPPGPPSVFPDCPRECYCPPDFPSALYCDSRNLRRVPVIPPRIHYLYLQNNFITELPLESFQNATGLRWVNLDNNRIRKVDQRVLGKLPSLAFLYMEKNQLEEVPSALPRNLEQLRLSQNLISRIPPGVFSKLENLLLLDLQHNRLSDGVFKADTFQGLKNLMQLNLAHNILRKMPPKVPQAIHQLYLDSNKIETIPNGYFKDFPNLAFIRMNYNKLSDRGLPKNSFNISNLLVLHLSHNKISNVPAISNKLEHLYLNNNSIEKINGTQICPNNLVAFHDFSSDLENVPHLRYLRLDGNFLKPPIPLDLMMCFRLLQSVVI	-1.413	Down
sp¦Q8BTY2¦S4A7_MOUSE (protein, UniProt Q8BTY2 1-1034, looked up) Sodium bicarbonate …: MEADGAGEQMRPLLTRGPDEEAVVDLGKTSSTVNTKFEKEELESHRAVYVGVHVPFSKESRRRHKHRGHKHHHRRRKDKDSDKEDGRESPSYDTPSQRVQFILGTEDDDEEHIPHDLFTEMDELCYRDGEEYEWKETARWLKFEEDVEDGGDRWSKPYVATLSLHSLFELRSCILNGTVMLDMRASTLDEIADMVLDNMIASGQLDDSIRENVREALLKRHHHQNEKRFTSRIPLVRSFADIGILASPQSAPGNLDNSKSGEMKGNGSGGSRENSTVDFSKVDMNFMRKIPTGAEASNVLVGEVDFLERPIIAFVRLAPAVLLSGLTEVPVPTRFLFLLLGPAGKAPQYHEIGRSIATLMTDEIFHDVAYKAKDRNDLLSGIDEFLDQVTVLPPGEWDPSIRIEPPKSVPSQEKRKIPVFPNGSAAMSVGPPKEDDHHAGPELQRTGRLFGGLILDIKRKAPFFLSDFKDALSLQCLASILFLYCACMSPVITFGGLLGEATEGRISAIESLFGASLTGIAYSLFAGQPLTILGSTGPVLVFEKILFKFCRDYHLSYLSLRTSIGLWTSFLCIVLVATDASSLVCYITRFTEEAFAALICIIFIYEALEKLFHLGEIYAFNMHNNLDELTSYTCVCAEPSNPSNETLELWKRKNITAYSVSWGNLTVSECKTFHGMFVGSACGPHGPYVPDVLFWCVVLFFTTFFLSSFLKQFKTKGYFPTKVRSTISDFAVFLTIVIMVAIDYLVGIPSPKLHVPEKFEPTDPSRGWIISPLGDNPWWTLLIAAVPALLCTILIFMDQQITAVIINRKEHKLKFIPMPVLYGVFLYMGVSSLKGIQFFDRIKLFGMPAKHQPDLIYLRYVPLWKVHVFTVVQLTCLVLLWVIKASAAAVVFPMMVLALVFVRKLMDLCFTKRELSWLDDLMPESKKKKEDDKKKKEKEEAERMLQDDEDTVHLPFERGSLLQIPVKTLKYSIDPSVVNISDEMAKTAQWKALSMNTENAKVTRPNTSPEKPVSVTINFEDEPSKKYMDAETSL	-1.445	Down
sp¦Q7TT15¦GLT17_MOUSE (protein, UniProt Q7TT15 1-598, looked up) Polypeptide …: MASLRRVKVLLVLNLIAVAGFVIFLAKCRPIAVRSGDAFHEIRPRAEVANLSAHSASPIQDAVLKRLSLLEDIVYRQLNGLSKSLGLIEGYGGRGKGGLPATLSPSEEEKAKGPHEKYGYNSYLSEKISLDRSIPDYRPTKCKELKYSKELPQISIIFIFVNEALSVILRSVHSAVNHTPTHLLKEIILVDDNSDEEELKAPLEEYVHKRYPGLVKVVRNQKREGLIRARIEGWKAATGQVTGFFDAHVEFTAGWAEPVLSRIQENRKRVILPSIDNIKQDNFEVQRYENSAHGYSWELWCMYISPPKDWWDAGDPSLPIRTPAMIGCSFVVNRKFFGEIGLLDPGMDVYGGENIELGIKVWLCGGSMEVLPCSRVAHIERKKKPYNSNIGFYTKRNALRVAEVWMDDYKSHVYIAWNLPLENPGIDIGDVSERKALRKSLKCKNFQWYLDHVYPEMRRYNNTIAYGELRNNKAKDVCLDQGPLENHTAILYPCHGWGPQLARYTKEGFLHLGALGTTTLLPDTRCLVDNSKSRLPQLLDCDKVKSSLYKRWNFIQNGAIMNKGTGRCLEVENRGLAGIDLILRSCTGQRWAIKNPIK	-1.487	Down
sp¦Q61097¦KSR1_MOUSE (protein, UniProt Q61097 1-873, looked up) Kinase suppressor of Ras 1: MDRAALRAAAMGEKKEGGGGGAAADGGAGAAVSRALQQCGQLQKLIDISIGSLRGLRTKCSVSNDLTQQEIRTLEAKLVKYICKQQQSKLSVTPSDRTAELNSYPRFSDWLYIFNVRPEVVQEIPQELTLDALLEMDEAKAKEMLRRWGASTEECSRLQQALTCLRKVTGLGGEHKMDSGWSSTDARDSSLGPPMDMLSSLGRAGASTQGPRSISVSALPASDSPVPGLSEGLSDSCIPLHTSGRLTPRALHSFITPPTTPQLRRHAKLKPPRTPPPPSRKVFQLLPSFPTLTRSKSHESQLGNRIDDVTPMKFELPHGSPQLVRRDIGLSVTHRFSTKSWLSQVCNVCQKSMIFGVKCKHCRLKCHNKCTKEAPACRITFLPLARLRRTESVPSDINNPVDRAAEPHFGTLPKALTKKEHPPAMNLDSSSNPSSTTSSTPSSPAPFLTSSNPSSATTPPNPSPGQRDSRFSFPDISACSQAAPLSSTADSTRLDDQPKTDVLGVHEAEAEEPEAGKSEAEDDEEDEVDDLPSSRRPWRGPISRKASQTSVYLQEWDIPFEQVELGEPIGQGRWGRVHRGRWHGEVAIRLLEMDGHNQDHLKLFKKEVMNYRQTRHENVVLFMGACMNPPHLAIITSFCKGRTLHSFVRDPKTSLDINKTRQIAQEIIKGMGYLHAKGIVHKDLKSKNVFYDNGKVVITDFGLFGISGVVREERRENQLKLSHDWLCYLAPEIVREMIPGRDEDQLPFSKAADVYAFGTVWYELQARDWPFKHQPAEALIWQIGSGEGVRRVLASVSLGKEVGEILSACWAFDLQERPSFSLLMDMLERLPKLNRRLSHPGHFWKSADINSSKVMPRFERFGLGTLESGNPKM	-1.493	Down
